Changes are numbered by the printed parent chain. In names and notes the source's numbering stands. Like-named read-outs stand apart in the source and are kept apart here.

Test [1] can be described thus: Saccharification assay (bagasse assay) with and without β-glucosidase (Example 1). In kind it is biochemical. The note with it: T. reesei CBH I variants; activity without β-glucosidase (BG) relative to with BG. The protocol: This assay measures the activity of CBH I on bagasse, a lignocellulosic substrate. Reactions were run in 10 ml vials with 5% dilute acid pretreated bagasse (250 mg solids per 5 ml reaction). Each reaction contained 4 mg CBH I enzyme/g solids, 200 mM MES pH 6, kanamycin, and chloramphenicol. Reactions were incubated at 35° C. in hybridization incubators (Robbins Scientific), rotating at 20 RPM. Time points were taken by transferring a sample of homogenous slurry (150 μl) into a 96-well deep well plate and quenching the reaction with stop buffer (450 μl of 500 mM sodium carbonate, pH 10). Time point measurements were taken every 24 hours for 72 hours.
Tolerance to cellobiose (or inhibition caused by cellobiose) was tested in two ways in the CBH I assays. A direct-dose tolerance method can be applied to all of the CBH I assays (i.e., 4-MUL, PASC, and/or bagasse assays), and entails the exogenous addition of a known amount of cellobiose into assay mixtures. A different indirect method entails the addition of an excess amount of β-glucosidase (BG) to PASC and bagasse assays (typically, 1 mg β-glucosidase/g solids loaded). BG will enzymatically hydrolyze the cellobiose generated during these assays; therefore, CBH I activity in the presence of BG can be taken as a measure of activity in the absence of cellobiose. Furthermore, when activity in the presence and absence of BG are similar, this indicates tolerance to cellobiose.

Test [2] in a line: 4-MUL cellobiose tolerance/inhibition assay, dose-response IC50 (Example 2). The format is biochemical. A digest of the protocol:
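IC50 reflects cellobiose concentration halving activity, fitted by four-parameter dose-response with zero activity fixed at knockout-strain background. Assays used 4-MUL (0.5 mM) with enzyme at 5 μg/mL or less, pH 6 MES, 25 mM gluconolactone blocking BG, cellobiose up to 100 mM; 4-MU fluorescence read.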

[3] abbreviates: Secondary screening, CBH I levels normalized to 5 μg/mL, cellobiose range 0.00085-100 mM, read-out: IC50.
Where [4] appears, read: secondary screening, CBH I levels normalized to 5 μg/mL, cellobiose range 0.0001-100 mM, read-out: Average IC50.

B1: R268K: T. reesei CBH I with an R268K substitution (protein, listed as Trichoderma reesei)
chain: MYRKLAVISAFLATARAQSACTLQSETHPPLTWQKCSSGGTCTQQTGSVVIDANWRWTHATNSSTNCYDGNTWSSTLCPDNETCAKNCCLDGAAYASTYGVTTSGNSLSIGFVTQSAQKNVGARLYLMASDTTYQEFTLLGNEFSFDVDVSQLPCGLNGALYFVSMDADGGVSKYPTNTAGAKYGTGYCDSQCPRDLKFINGQANVEGWEPSSNNANTGIGGHGSCCSEMDIWEANSISEALTPHPCTTVGQEICEGDGCGGTYSDNKYGGTCDPDGCDWNPYRLGNTSFYGPGSSFTLDTTKKLTVVTQFETSGAINRYYVQNGVTFQQPNAELGSYSGNELNDDYCTAEEAEFGGSSFSDKGGLTQFKKATSGGMVLVMSLWDDYYANMLWLDSTYPTNETSSTPGAVRGSCSTSSGVPAQVESQSPNAKVTFSNIKFGPIGSTGNPSGGNPPGGNPPGTTTTRRPATTTGSSPGPTQSHYGQCGGIGYSGPTVCASGTTCQVLNPYYSQCL
By IC50 is commonly meant the concentration needed to halve the response being measured. Take B1: the “Tolerance to cellobiose accumulation % Activity in Bagasse Assay (+/−BG)” value in test [1] worked out at 92%. Besides, the IC50 in test [2] (setting [3]) stood at 134 µM; in test [2] (setting [4]), 93 µM.

B2: 411A: CBH I variant with site 411 mutated to alanine (protein, listed as Trichoderma reesei)
chain: QSACTLQSETHPPLTWQKCSSGGTCTQQTGSVVIDANWRWTHATNSSTNCYDGNTWSSTLCPDNETCAKNCCLDGAAYASTYGVTTSGNSLSIGFVTQSAQKNVGARLYLMASDTTYQEFTLLGNEFSFDVDVSQLPCGLNGALYFVSMDADGGVSKYPTNTAGAKYGTGYCDSQCPRDLKFINGQANVEGWEPSSNNANTGIGGHGSCCSEMDIWEANSISEALTPHPCTTVGQEICEGDGCGGTYSDNRYGGTCDPDGCDWNPYRLGNTSFYGPGSSFTLDTTKKLTVVTQFETSGAINRYYVQNGVTFQQPNAELGSYSGNELNDDYCTAEEAEFGGSSFSDKGGLTQFKKATSGGMVLVMSLWDDYYANMLWLDSTYPTNETSSTPGAVAGSCSTSSGVPAQVESQSPNAKVTFSNIKFGPIGSTGNPSGGNPPGGNPPGTTTTRRPATTTGSSPGPTQSHYGQCGGIGYSGPTVCASGTTCQVLNPYYSQCL
B2: the “Tolerance to cellobiose accumulation % Activity in Bagasse Assay (+/−BG)” value in test [1] is recorded as 94%. For the same molecule, the IC50 stood at 1060 µM in test [2] (setting [3]); 1170 µM in test [2] (averaged IC50 values from Tables 8-11, read-out: measured IC50 of cellobiose (merged values)); 918 µM in test [2] (setting [4]).

B3: R268A: T. reesei CBH I with an R268A substitution (protein, listed as Trichoderma reesei)
chain: B2 chain with R251A, A394R
With B3, the “Tolerance to cellobiose accumulation % Activity in Bagasse Assay (+/−BG)” value in test [1] is recorded as 86%. The IC50 in test [2] (setting [3]) is 574 µM; in test [2] (setting [4]), 423 µM.
